The Human Domainome abundance scans (Beltran et al. 2025)

B1: Zinc finger MYM-type protein 3, residues 589 to 668; numbered along this chain, Q14202 (parent)
chain: LSCHYCHSLFSGKPEVLDWQDQVFQFCCRDCCEDFKRLRGVVSQCEHCRQEKLLHEKLRFSGVEKSFCSEGCVLLYKQDF

Variants of: B1
Assay: abundance fitness (aPCA) (normalised: wild type 0, dead -1); higher = more abundant; growth selection in yeast, the domain comes from the species named
Conditions: Homo sapiens

Abundance fitness of substitutions, site by site:
Y5: L 0.082, N 0.021, R 0.19, I -0.061, A 0.267, E -0.081, T -0.009, M 0.313, K 0.294, Q 0.203, C 0.01, G 0.156, D -0.615, F 0.095, P -0.906, H -0.066
S11: G -0.169, W -0.565, A -0.374, V -0.418, F -0.397, R -0.406, T -0.155, E -0.276, L -0.374, Q -0.275, P -0.454, M -0.426, C -0.512, I -0.312
C6: M -0.325, Q -0.892, F -1.2, W -0.978, H -0.821, V -0.995, P -0.949, Y -0.828, D -1.01, R -0.919, G -1.05
G12: W -0.27, P -0.227, H -0.15, Q -0.003, M -0.143, S -0.038, I -0.395, E 0.034, D -0.274, A 0.013, T 0.039, N -0.187, L -0.261, V -0.267, K -0.02, R -0.145, C -0.272, Y -0.75, F -0.384
L1: R -0.439, W -0.641, F 0.279, P -0.436, G -0.034, Q -0.703, A -0.012, T 0.098, E 0.082, I 0.363, V 0.364, Y 0.047, M 0.442, C 0.004, K 0.016, S -0.206, N 0.239
K13: C -0.117, R 0.05, H -0.043, T -0.081, I -0.098, Q 0.039, D 0.019, V -0.169, G -0.162, Y -0.389, F -0.135, A -0.037, M -0.444, P 0.042, N -0.198, S -0.062, E -0.001, L -0.048
S2: D 0.412, P -0.39, Y 0.293, V 0.135, T -0.051, I 0.311, E 0.159, F 0.141, M 0.243, K 0.354, L 0.081, H 0.281, R 0.12, W -0.069, N 0.48, A 0.106, G 0.157
E15: H -0.017, L -0.014, C 0.008, F -0.049, S -0.108, T 0.076, W -0.033, A -0.075, N -0.015, M 0.152, G -0.56, Q -0.086, V 0.057, K -0.46, I 0.093, D -0.155
L9: F -0.062, V 0.015, E -0.021, M -0.097, N -0.121, W -0.095, D -0.073, C -0.184, P 0.15, R -0.012, S 0.009, G 0.121, Q 0.093, T 0.083, K -0.096
Q20: F 0.198, H -0.021, E 0.492, G 0.334, D 0.456, A 0.265, P 0.179, N 0.348, R 0.151, W 0.014, S 0.245, V 0.032, L 0.08, M 0.394, K 0.456
H7: R 0.049, D 0.226, E 0.158, K 0.055, A 0.154, F 0.165, M -0.133, G 0.117, N 0.126, Y 0.112, S 0.237, W -0.187, V -0.145, T 0.124, Q -0.12, I 0.088
V16: Y -0.041, D -0.702, P -0.099, K -0.11, H -0.044, N -0.033, G -0.208, I -0.121, R 0.004, E -0.072, C -0.003, F -0.229, L -0.065, S 0.011, W -0.206, T -0.03, M 0.022, Q 0.003
C3: M -0.505, V -0.871, Y -0.984, I -1.02, G -1.01, K -0.837, N -1.11, D -1.04, S -1.06, F -0.63, P -1.06, T -0.936, L -0.896, R -0.949, A -0.906, H -1.17, Q -0.998, E -0.823
F10: T -0.16, H -0.043, I -0.115, Q -0.685, R -0.498, S -0.316, K -0.535, E -0.691, Y -0.191, G -0.408, P -0.052, N -0.373, A -0.316, D -0.623, W -0.298
P14: H -0.212, G -0.206, S -0.386, F -0.371, A -0.223, M -0.169, N -0.153, L -0.523, W -0.528, V -0.246, C -0.6, R -0.459, T -0.381, E -0.309, I -0.264, D -0.24, Q -0.39
W19: G 0.105, M 0.48, S 0.365, N 0.225, P 0.224, K 0.183, L 0.332, D -0.035, V 0.167, R 0.157, Q 0.225, Y 0.269, F 0.364, H 0.137, C 0.276, I 0.234, E 0.201, A 0.175, T 0.326
D18: F -0.101, M 0.175, N 0.138, Y -0.127, C -0.107, Q 0.067, G -0.083, A -0.007, S 0.017, E -0.06, K -0.028, I -0.039, L 0.036, R 0.155, H -0.08, P 0.236, V -0.073
H4: I -0.064, S 0.248, V 0.054, G 0.29, P -0.061, E 0.174, R 0.115, D 0.128, C 0.26, L -0.05, K 0.179, T 0.19, M 0.227, N 0.225, F 0.128, Q 0.088, A 0.28, Y 0.116, W 0.079
L17: F -0.079, M 0.043, S -0.262, G -0.135, W -0.135, P -0.311, I -0.009, K -0.359, H -0.017, C -0.077, V -0.027, T -0.06, Y -0.202, R -0.348, D -0.332, E -0.146, N -0.53, A -0.035, Q -0.015
S8: I 0.309, P -1.19, F -0.039, A 0.321, L 0.062, T 0.246, H 0.188, R 0.332, E 0.154, D 0.076, G 0.248, M 0.355, Y 0.192, Q 0.397, V 0.374, W -0.015, K 0.486, N 0.297
